In US20050100951A1:

Legend:
α-2-macroglobulin = assay: FITC-trypsin on α-2-macroglobulin-loaded hydrogel microspots; CCD camera
Ferritin = assay: FITC-trypsin on ferritin-loaded hydrogel microspots (negative control); CCD camera
[1] = test system: T1, insulin receptor fragment (Peptide No. 1, phosphorylated)
T1 sequence: TRNIXQTNYYRK

Row | Substance | Flourescence Intensity (au) (α-2-macroglobulin) | Flourescence Intensity (au) (Ferritin) | loss of fluorescent signal (removal of the phosphate group, detected with anti-phosphotyrosine antibody) [1]
1 | FITC-labeled trypsin (enzyme) | 800 au | 20 au | –
2 | Leucocyte Antigene Related (LAR) protein tyrosin phosphatase | – | – | the LAR-PTPase selectively removes the phosphate group substantially completely from Peptide No. 1
